From IntAct's records for PubMed 29039417

B1: BBSome complex member BBS2 (Homo sapiens), Q9BXC9 (parent)
chain: MLLPVFTLKLRHKISPRMVAIGRYDGTHPCLAAATQTGKVFIHNPHTRNQHVSASRVFQSPLESDVSLLSINQAVSCLTAGVLNPELGYDALLVGTQTNLLAYDVYNNSDLFYREVADGANAIVLGTLGDISSPLAIIGGNCALQGFNHEGSDLFWTVTGDNVNSLALCDFDGDGKKELLVGSEDFDIRVFKEDEIVAEMTETEIVTSLCPMYGSRFGYALSNGTVGVYDKTSRYWRIKSKNHAMSIHAFDLNSDGVNELITGWSNGKVDARSDRTGEVIFKDNFSSAIAGVVEGDYRMDGHIQLICCSVDGEIRGYLPGTAEMRGNLMDTSAEQDLIRELSQKKQNLLLELRNYEENAKAELASPLNEADGHRGIIPANTRLHTTLSVSLGNETQTAHTELRISTSNDTIIRAVLIFAEGIFTGESHVVHPSIHNLSSSICIPIVPPKDVPVDLHLKAFVGYRSSTQFHVFESTRQLPRFSMYALTSLDPASEPISYVNFTIAERAQRVVVWLGQNFLLPEDTHIQNAPFQVCFTSLRNGGHLHIKIKLSGEITINTDDIDLAGDIIQSMASFFAIEDLQVEADFPVYFEELRKVLVKVDEYHSVHQKLSADMADHSNLIRSLLVGAEDARLMRDMKTMKSRYMELYDLNRDLLNGYKIRCNNHTELLGNLKAVNQAIQRAGRLRVGKPKNQVITACRDAIRSNNINTLFKIMRVGTASS
partner: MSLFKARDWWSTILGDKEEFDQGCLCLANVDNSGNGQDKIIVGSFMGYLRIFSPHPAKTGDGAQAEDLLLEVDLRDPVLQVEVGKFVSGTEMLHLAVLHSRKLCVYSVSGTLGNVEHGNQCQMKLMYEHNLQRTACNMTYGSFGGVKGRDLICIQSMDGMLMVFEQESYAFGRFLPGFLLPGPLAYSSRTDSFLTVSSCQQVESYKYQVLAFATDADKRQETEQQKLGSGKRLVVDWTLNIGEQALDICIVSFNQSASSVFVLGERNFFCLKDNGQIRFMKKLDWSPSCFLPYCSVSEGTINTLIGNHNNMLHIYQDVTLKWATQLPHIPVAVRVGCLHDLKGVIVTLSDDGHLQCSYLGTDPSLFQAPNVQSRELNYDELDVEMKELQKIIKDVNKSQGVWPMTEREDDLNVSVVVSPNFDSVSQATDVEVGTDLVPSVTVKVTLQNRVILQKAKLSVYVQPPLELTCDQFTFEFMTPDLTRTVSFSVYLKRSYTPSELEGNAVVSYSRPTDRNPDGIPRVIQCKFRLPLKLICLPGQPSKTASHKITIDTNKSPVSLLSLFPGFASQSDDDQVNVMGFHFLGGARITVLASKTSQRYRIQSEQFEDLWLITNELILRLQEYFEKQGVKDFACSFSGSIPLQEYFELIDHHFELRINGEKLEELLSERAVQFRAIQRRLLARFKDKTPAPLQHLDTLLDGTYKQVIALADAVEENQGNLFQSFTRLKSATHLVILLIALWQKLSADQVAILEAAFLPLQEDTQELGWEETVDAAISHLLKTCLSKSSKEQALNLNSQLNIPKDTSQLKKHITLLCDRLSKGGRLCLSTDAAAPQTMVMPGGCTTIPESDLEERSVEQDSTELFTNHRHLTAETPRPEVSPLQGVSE

Variants of: B1
Conditions: with pthb1_human BBS9, Q3SYG4

Effect of a mutation on the interaction, with no effect:
L650A
L650K
L650E
L647A
L647K
L647E
S642K
S642A
S642E
G670K
G670A
G670E
R661K
R661A
R661E
G657K
G657E
G657A
E646A
E646K
T666E
T666A
T666K
I660A
I660K
I660E
L672K
L672E
L672A
M645A
M645E
M645K
K641E
E667A
E667K
K659E
K659A
N656E
N656K
N656A
L654K
L654E
L654A
N651E
N651A
N651K
L655A
L655E
L655K
N663A
N663E
N663K
Y644K
Y644A
Y644E
A674E
D653E
D653A
D653K
L668K
L668E
L668A
R643K
R643A
R643E
L669A
L669K
L669E
K673A
K673E
C662A
C662K
C662E
N671E
N671A
N671K
H665K
H665E
H665A
N664K
N664E
N664A
D649K
D649E
D649A
Y648K
Y648E
Y648A
Y658E
Y658K
Y658A
R652K
R652A
R652E
